In series [1] the target is T1, ENOX2 (tNOX) (Homo sapiens) (UniProt Q16206).
T1 sequence: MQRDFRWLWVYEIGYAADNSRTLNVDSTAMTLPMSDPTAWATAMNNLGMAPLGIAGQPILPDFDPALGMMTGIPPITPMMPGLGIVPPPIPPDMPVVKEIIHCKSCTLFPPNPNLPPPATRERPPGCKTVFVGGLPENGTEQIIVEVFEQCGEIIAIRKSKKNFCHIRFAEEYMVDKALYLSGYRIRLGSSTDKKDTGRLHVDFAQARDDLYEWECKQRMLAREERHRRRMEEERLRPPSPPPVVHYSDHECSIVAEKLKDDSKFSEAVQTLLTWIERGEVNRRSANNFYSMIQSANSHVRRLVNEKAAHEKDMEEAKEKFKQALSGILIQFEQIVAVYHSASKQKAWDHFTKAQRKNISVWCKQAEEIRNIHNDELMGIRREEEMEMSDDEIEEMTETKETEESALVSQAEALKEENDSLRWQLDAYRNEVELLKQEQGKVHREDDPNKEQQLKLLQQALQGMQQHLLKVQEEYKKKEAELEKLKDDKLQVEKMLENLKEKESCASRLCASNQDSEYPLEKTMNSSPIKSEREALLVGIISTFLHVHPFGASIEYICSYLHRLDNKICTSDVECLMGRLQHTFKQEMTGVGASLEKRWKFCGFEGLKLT
As to the kind of experiment: electrochemical (E-DNA, square wave voltammetry). Particulars: apparent Kd; 0.1-200 nM ENOX2; PBS with 1 mM MgCl2; internal methylene blue on thymine T21 (printed after ...CATCTTT); 5' disulfide linker reduced to thiol; EMSA: 0.7% agarose, 0.5x TBE (65 mM Tris, 22.5 mM boric acid, 1.25 mM EDTA, 0.5 mM MgCl2, 0.005% Tween-20, pH 8.3); E-DNA: PBS pH 7.4 (137 mM NaCl, 10 mM …). For orientation: Mobility shift assays separate free from complexed probe on a gel.

Series [2] addresses T1, ENOX2 (tNOX) (Homo sapiens). As to the kind of experiment: EMSA. Particulars: apparent Kd; 1 nM aptamer, 0-100 nM ENOX2; 0.5 mM MgCl2; EMSA: 0.7% agarose, 0.5x TBE (65 mM Tris, 22.5 mM boric acid, 1.25 mM EDTA, 0.5 mM MgCl2, 0.005% Tween-20, pH 8.3); E-DNA: PBS pH 7.4 (137 mM NaCl, 10 mM …).

2 sequences from article PMC10377175 can be followed below.

Take “TAAAGATCCCTGTTCATCTTTTCTCGAGTGTTCTTTAGAACAATGAATCTTT [ENOX2 E-DNA biosensor aptamer]”: in series [1], the Kd was 6 nM.
Regarding “TTTTTTAGATCCCTGTTCATCTGTCTCGAGTGTTCTTTAATGATCTTTTT [ENOX2-binding aptamer, 5' fluorescein]”, the Kd in series [2] was found to be 0.4 nM.
